Measurements published in the nanobody polyreactivity screen of Harvey et al. (2022).

Test: yeast display, Sf9 membrane polyspecificity reagent, FACS + sequencing; frameworks hold sequencing errors
Method in brief: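 Nanobodies came from a synthetic yeast display library in Saccharomyces cerevisiae BJ5465, induced with galactose for 36–48 hours and stained for 1 hour at 4 °C with 10% biotinylated, detergent-solubilized Sf9 membrane reagent. Cells were enriched on streptavidin microbeads and then FACS-sorted, with low and high (top ~1%) gates set on anti-HA fluorescence for expression and streptavidin fluorescence for reagent binding. Each polyreactivity label reflects the gate a clone came from. Genes were amplified by colony PCR, sequenced by MiSeq 2 × 250 and filtered by CDR length.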
With “QVQLVESGGGLVQAGGSLRLSCAASGRIFAGYGMGWYRQAPGKARELVAAISSGGSTYYADSVKGRFTISRDNAKNTVYLQMNSLKPEDTAVYYCATDGQSVPDDYYQNVDYDYWGQGTQLTVSS” the “polyreactivity (PSR sort gate)” value was “low polyreactivity”.
In the case of “QVQLVESGGGLVQAGGSLRLSCAASGRIFAGYVMGWYRQAPGKERELVAAISGSGASTYYADSVKGRFTISRDNAKNTVYLQMNSLKPEDTAVYYCAADKPGIFSRFDYWGQGTQVTVSS”, the “polyreactivity (PSR sort gate)” value is reported as “low polyreactivity”.
In the case of “QVQLVESGGGLVQAGGSLRLSCAASGRIFAHNAMGWYRQAPGKERELVAAISGTGGRTYYADSVKGRFTISRDNAKNTVYLQMNSLKPEDTAVYYCARRPTHRTGVLDWEYDYWGQGTQVTVSS”, the “polyreactivity (PSR sort gate)” value is reported as “low polyreactivity”.
With “QVQLVESGGGLVQAGGSLRLSCAASGRIFAKYAMGWSRQAPGTERELVAAISWRGGRTYYADSVKGRFTISRDNAKNTVYLQMNSLKPEDTAVYYCNAVGSRAYVASAWTQMDYWGQGTQVTVSS” the “polyreactivity (PSR sort gate)” value was “high polyreactivity”.
For “QVQLVESGGGLVQAGGSLRLSCAASGRIFALYAMGWYRQAPGKERELVAAISGGGGSTYYADSVKGRFTISRDNAKNSVYLQMNSLKPEDTAVYYCAARGLSGSSVKYGYWGQGTQVTVSS”, the “polyreactivity (PSR sort gate)” value was “high polyreactivity”.
In the case of “QVQLVESGGGLVQAGGSLRLSCAASGRIFALYAMGWYRQAPGKERELVAAITWRGGRTRYADSVKGRFTISRDNAKNTVYLQMNSLKPEDTAVYYCAKEYVKYQWDYGYWGQGTQVTVSS”, the “polyreactivity (PSR sort gate)” value is reported as “high polyreactivity”.
For “QVQLVESGGGLVQAGGSLRLSCAASGRIFAPYAMGWYRQAPGKERELVAAITSGGSTNYADSVKGRFTISRDNAKNTVYLQMNSLKPEDTAVYYCAAEASYNYGKYVVTYDYWGQGTQVTVSS”, the “polyreactivity (PSR sort gate)” value was “high polyreactivity”.
For “QVQLVESGGGLVQAGGSLRLSCAASGRIFAPYAMGWYRQAPGQEREFVATITVSGARTRYADSVKGRFTISRDNAKNTVYLQMNSLKPEETAVYYCAASKFYSWRATRKVSYDYWGQGTQVTVSS”, the “polyreactivity (PSR sort gate)” value was “high polyreactivity”.
With “QVQLVESGGGLVQAGGSLRLSCAASGRIFAPYDMGWYRQAPGKERELVAAISRSGGSTYYADSVKGRFTISRDNAKNSVYFQLNSLKPEDTAVYYCAASYPGRYWLYRYEYWGQGTQVTVSS” the “polyreactivity (PSR sort gate)” value was “high polyreactivity”.
With “QVQLVESGGGLVQAGGSLRLSCAASGRIFAQYAMGWYRQAPGKERELVADISSGVRTYADSVKGRFTISRDNAKNTVYLQMNSLKPEDTAVYYCNAYYIIFTRNDYWGQGTQVTVSS” the “polyreactivity (PSR sort gate)” value was “low polyreactivity”.
For “QVQLVESGGGLVQAGGSLRLSCAASGRIFARKAMGWYRQAPGKEGELVARIRASGGSTYYADSVKGRFTISRDNAKNTVYLQMNSLKPEDTAVYYCNARTSSPYRVDYWGQGTQVTVSS”, the “polyreactivity (PSR sort gate)” value was “high polyreactivity”.
In the case of “QVQLVESGGGLVQAGGSLRLSCAASGRIFARNALGWYRQAPGKEGELVARIRASGGSTYYADSVKGRFTISRDNAKNTVYLQMNSLKPEDTAVYYCNARTSSPYRVDYWGQGTQVTVSS”, the “polyreactivity (PSR sort gate)” value is reported as “high polyreactivity”.
For “QVQLVESGGGLVQAGGSLRLSCAASGRIFARYAMGWYRQAPGKERELVAAITVSGDNTYYADSVKGRFTISRDNAKNTVYLQMNSLKPEDTAVYYCAVRAVLLFGFFEYDYWGQGTQVTVSS”, the “polyreactivity (PSR sort gate)” value was “low polyreactivity”.
For “QVQLVESGGGLVQAGGSLRLSCAASGRIFARYTMGWYRQAPGKERELVATITGRGGRTYADSVKGRFTISRDNAKNTVYLQMNSLKPEVTAVYYCNAGGRTASRRYYWGQGSQVTVSS”, the “polyreactivity (PSR sort gate)” value was “low polyreactivity”.
In the case of “QVQLVESGGGLVQAGGSLRLSCAASGRIFASNAMGWYRQAPGKERELVAAISRTGGTTYYADSVKGRFTISRDNAKNTVYLQMNSLKPEDTAVYYCNAVKAPYLRYDYWGQGTQVTVSS”, the “polyreactivity (PSR sort gate)” value is reported as “high polyreactivity”.
In the case of “QVQLVESGGGLVQAGGSLRLSCAASGRIFASNAMGWYRQAPGKERELVAAITTTGGSTYYADSVKGRFTISRDNAKNTVYLQMNSLKPEDTAVYYCAARAIPRVRRYGSMNYWGQGTQVTVSS”, the “polyreactivity (PSR sort gate)” value is reported as “high polyreactivity”.
In the case of “QVQLVESGGGLVQAGGSLRLSCAASGRIFASYAMGWYRQAPGKERELVAAINSNGGSKYYADSVKGRFTISRDNAKNTVYLQMNSLKPEDTAVYYCAAGARYKMGYWGQGTQVTVSS”, the “polyreactivity (PSR sort gate)” value is reported as “high polyreactivity”.
For “QVQLVESGGGLVQAGGSLRLSCAASGRIFATNAMGWYRQAPGKERELVATITRSAGRTYYADSVKGRFTISRDNAKNTVYLQMNSLKPEDTAVYYCAASYWDTDPGYREYDYWGQGTQVTVSS”, the “polyreactivity (PSR sort gate)” value was “low polyreactivity”.
In the case of “QVQLVESGGGLVQAGGSLRLSCAASGRIFATNAMGWYRQAPGKERELVATITRSAGRTYYADSVKGRFTISRDTAKNTVYLQMNSLKPEDTAVYYCAASYWDTEPGYREYDYWGQGTQVTVSS”, the “polyreactivity (PSR sort gate)” value is reported as “low polyreactivity”.
For “QVQLVESGGGLVQAGGSLRLSCAASGRIFATYAMGWYRQAPGKERELVAAISDSGGRTYYADSVKGRFTISRDNAKNTVYLQMNSLKPEDTAVYYCARRAVYGIFDYWGQGTQVTVSS”, the “polyreactivity (PSR sort gate)” value was “high polyreactivity”.
In the case of “QVQLVESGGGLVQAGGSLRLSCAASGRIFAVYAMGWYRQAPGKERELVATISSSGSTHYADSVKGRFTISRDNAKNTVYLQMNSLKPEDTAVYYCNAGGSELKLGYDYWGQGTQVTVSS”, the “polyreactivity (PSR sort gate)” value is reported as “low polyreactivity”.
For “QVQLVESGGGLVQAGGSLRLSCAASGRIFAWNDMGWYRQAPGKERELVAAITSGGSTYYADSVKGRFTISRDNAKNTVYLQMNSLKPEDTAVYYCAAEVYVPDYFQHKFDVEYEYWGQGTQVTVSS”, the “polyreactivity (PSR sort gate)” value was “low polyreactivity”.
With “QVQLVESGGGLVQAGGSLRLSCAASGRIFAWNDMGWYRQAPGKERELVAAITSGGSTYYADSVKGRFTISRDNAKNTVYLQMNSLKPEDTAVYYCAAGSAYYSQRYFAYGYDSWGQGTQVTVSS” the “polyreactivity (PSR sort gate)” value was “low polyreactivity”.
With “QVQLVESGGGLVQAGGSLRLSCAASGRIFAWNDMGWYRQAPGKESELVAAITSGGSTYYADSVKGRFTISRDNAKNTVYLQMNCLKPEDTAVYYCAAGSAYYSQRYFAYGYDSWGQGTQVTVSS” the “polyreactivity (PSR sort gate)” value was “low polyreactivity”.
In the case of “QVQLVESGGGLVQAGGSLRLSCAASGRIFAYNAMGLYRQAPGKERELVADISSGGNTYYADSVKGRFTISRDNAKNTVYLQMNSLKPEDTAVYYCAKYTYDYWGQGTQVTVSS”, the “polyreactivity (PSR sort gate)” value is reported as “low polyreactivity”.
For “QVQLVESGGGLVQAGGSLRLSCAASGRIFAYNAMGWYRQAPGKERELVAAITWSGDSTYYADSVKGRFTISRDNAKNSVYLQMNSLKPVDTAVYYCATDALFKTSTRWKYDYWGQGTQVTVSS”, the “polyreactivity (PSR sort gate)” value was “low polyreactivity”.
With “QVQLVESGGGLVQAGGSLRLSCAASGRIFAYNAMGWYRQAPGKERELVATITSSGDGTSYADSVKGRFTISRDNAKNTVYLQMNSLKPEDTAVYYCNKVTRVRRDPYDAVAYRGGYWGQGTQVTVSS” the “polyreactivity (PSR sort gate)” value was “high polyreactivity”.
With “QVQLVESGGGLVQAGGSLRLSCAASGRIFAYNDMGWYRQAPGKEREFVAAITWSGTTFSADSVKGRFTISRDNAKNTVYLQMNSLNPEDTAVYYCAAVPYTRWKGADGDYDDVYTEYWGQGTQVTVSS” the “polyreactivity (PSR sort gate)” value was “high polyreactivity”.
In the case of “QVQLVESGGGLVQAGGSLRLSCAASGRIFAYNTMGWYRQAPGKEREMVAVITSGGSTNYADSVKGRFTISRDNAKITVYLQMNSLKPEDTAVYYCAKRPYGRSGGSRYDYWGHGTQVTVSS”, the “polyreactivity (PSR sort gate)” value is reported as “high polyreactivity”.
In the case of “QVQLVESGGGLVQAGGSLRLSCAASGRIFAYYAMGWYRQAPGKERELVAAITRRSGDTTYYADSVKGRFTISRDNAKNTVYLQMNSLKPEDTAVYYCAARNPSFSSQYYSWGQGTQVTVSS”, the “polyreactivity (PSR sort gate)” value is reported as “high polyreactivity”.
For “QVQLVESGGGLVQAGGSLRLSCAASGRIFAYYAMGWYRQAPGKERELVATIRSGGDTNYADSVKGRFTISRDNAKNTVYLQMNSLKPEDTAVYYCNALYDWWYPHEYNYWGQGTQVTVSS”, the “polyreactivity (PSR sort gate)” value was “low polyreactivity”.
With “QVQLVESGGGLVQAGGSLRLSCAASGRIFCVYAMGWYRQAPGKERELVAAIDTSDGSTNYADSVKGRFTISRDNAKYTVYLQMNSLKPEDTAVYYCNATDSYVPFDYWGQGTQVTVSS” the “polyreactivity (PSR sort gate)” value was “low polyreactivity”.
In the case of “QVQLVESGGGLVQAGGSLRLSCAASGRIFDDNAMGWDRQAPGKETELVAAISASGGSTYYADSVKGRFTISRVNAKNTVYLQMNSLKPEDTAVYYCAKAPGQDTPYPYGYWGQGTQVTVSS”, the “polyreactivity (PSR sort gate)” value is reported as “high polyreactivity”.
For “QVQLVESGGGLVQAGGSLRLSCAASGRIFDDNAMGWYRQAPGKERELVAAISSGDSTKYADSVKGRFTISRDNAKNTVYLQMNSLKPEDTAVYYCNRRKTNSRYDYWGQGTQVTVSS”, the “polyreactivity (PSR sort gate)” value was “low polyreactivity”.
In the case of “QVQLVESGGGLVQAGGSLRLSCAASGRIFDGYAMGWNRKAPGKERELVPAISGGGNTKYADSEKGRFTISRDNAKNTVYLQMNSLKPEDTAVYYCAARGYYYGYRFDSWGQGTQVTVSS”, the “polyreactivity (PSR sort gate)” value is reported as “high polyreactivity”.
With “QVQLVESGGGLVQAGGSLRLSCAASGRIFDGYAMGWYRQAPGKERELVASISYDGGSTYYADSVQGRFTISRDNAKNTVYLQMNSLKPEDTAVYYCAAVYRRRSYTFYYWGQGTQVTVSS” the “polyreactivity (PSR sort gate)” value was “high polyreactivity”.
With “QVQLVESGGGLVQAGGSLRLSCAASGRIFDGYAMGWYRQAPGKERELVATITRGGSTNYADSVKRPFTISRDNAKNTVYIQMNSLKPEDTAVYYCNADIRRHGGYAHEYWGEGTQVTVSS” the “polyreactivity (PSR sort gate)” value was “low polyreactivity”.
For “QVQLVESGGGLVQAGGSLRLSCAASGRIFDGYAMGWYRQAPGKESELVATIDVSGGRTTYADSVKGRFTISRDNAKNTVYLQMNSLKPEDTAVYYCNVDYYWSSGGTDYDYWGQGTQVTVSS”, the “polyreactivity (PSR sort gate)” value was “low polyreactivity”.
With “QVQLVESGGGLVQAGGSLRLSCAASGRIFDGYDMGWYRQAPGKERELVAAITSVGSTNYADSVKGRFTISRDNAKNTVYLQMNSLKPEDTAVYYCAAVLYVFYDEYGYWEYFSQYDYWGQGTQVTVSS” the “polyreactivity (PSR sort gate)” value was “low polyreactivity”.
In the case of “QVQLVESGGGLVQAGGSLRLSCAASGRIFDHNAMGWYRPAPGKERELVAAIDWSGGSTYYADSVKGRFTISRDNAKNTVYLQMNSLKPEDTAVYYCNVYWHTFSWDDYGYWGQGTQVTVSS”, the “polyreactivity (PSR sort gate)” value is reported as “low polyreactivity”.
In the case of “QVQLVESGGGLVQAGGSLRLSCAASGRIFDHYAMGWYRQAPGKERELVAAINSGGTTNYADSVKGRFTISRDNAKNTVYLQMNSLKPEETAVYYCAARPRKGQYYFGGNYWGQGTQVTVSS”, the “polyreactivity (PSR sort gate)” value is reported as “low polyreactivity”.
For “QVQLVESGGGLVQAGGSLRLSCAASGRIFDIYAMGWYRQAPGKERELVATITRSAGRTYYADSVKGRFTISRDNAKNTVYLQMNSLKPEDTAVYFCAASYWDTEPGYREYEYWGQGTQVTVSS”, the “polyreactivity (PSR sort gate)” value was “low polyreactivity”.
With “QVQLVESGGGLVQAGGSLRLSCAASGRIFDIYTMGWYRQAPGKERELVASITKRGGSTYYADSVKGRFTISRDNAKNTVYLQMNSLKPEDTAVYYCNAVYSWYRRYGLEGYWGQGTQVTVSS” the “polyreactivity (PSR sort gate)” value was “high polyreactivity”.
